Measurements from patent publication US20070287170A1 (Merck KGaA, published 2007).

B1: DI-KS(GA(f0) SEED) heavy chain with DI-KS light chain (antibody)
heavy: QIQLVQSGPELKKPGSSVKISCKASGYTFTNYGMNWVRQAPGKGLKWMGWINTYTGEPTYADDFKGRFTITAETSTSTLYLQLNNLRSEDTATYFCVRFISKGDYWGQGTTVTVSSASTKGPSVFPLAPSSKSTSGGTAALGCLVKDYFPEPVTVSWNSGALTSGVHTFPAVLQSSGLYSLSSVVTVPSSSLGTQTYICNVNHKPSNTKVDKRVEPKSCDKTHTCPPCPAPELLGGPSVFLFPPKPKDTLMISRTPEVTCVVVDVSHEDPEVKFNWYVDGVEVHNAKTKPREEQYNSTYRVVSVLTVLHQDWLNGKEYKCKVSNKALPAPIEKTISKAKGQPREPQVYTLPPPSEELALNELVTLTCLVKGFYPSDIAVEWLQGSQELPREKYLTWAPVLDSDGSFFLYSILRVAAEDWKKGDTFSCSVMHEALHNHYTQKSLDRSPGK
light: QIVLTQSPASLAVSPGQRATITCSASSSVSYILWYQQKPGQPPKPWIFDTSNLASGFPSRFSGSGSGTSYTLTINSLEAEDAATYYCHQRSGYPYTFGGGTKVEIKRTVAAPSVFIFPPSDEQLKSGTASVVCLLNNFYPREAKVQWKVDNALQSGNSQESVTEQDSKDSTYSLSSTLTLSKADYEKHKVYACEVTHQGLSSPVTKSFNRGEC
notes: It has anti-EpCAM V regions, human IgG1 CH1 and CH2, and human Ckappa; also called antibody heavy chain (no IL-2)
B2: DI-KS(AG(f0) SEED)-IL-2 heavy chain with DI-KS light chain (antibody)
heavy: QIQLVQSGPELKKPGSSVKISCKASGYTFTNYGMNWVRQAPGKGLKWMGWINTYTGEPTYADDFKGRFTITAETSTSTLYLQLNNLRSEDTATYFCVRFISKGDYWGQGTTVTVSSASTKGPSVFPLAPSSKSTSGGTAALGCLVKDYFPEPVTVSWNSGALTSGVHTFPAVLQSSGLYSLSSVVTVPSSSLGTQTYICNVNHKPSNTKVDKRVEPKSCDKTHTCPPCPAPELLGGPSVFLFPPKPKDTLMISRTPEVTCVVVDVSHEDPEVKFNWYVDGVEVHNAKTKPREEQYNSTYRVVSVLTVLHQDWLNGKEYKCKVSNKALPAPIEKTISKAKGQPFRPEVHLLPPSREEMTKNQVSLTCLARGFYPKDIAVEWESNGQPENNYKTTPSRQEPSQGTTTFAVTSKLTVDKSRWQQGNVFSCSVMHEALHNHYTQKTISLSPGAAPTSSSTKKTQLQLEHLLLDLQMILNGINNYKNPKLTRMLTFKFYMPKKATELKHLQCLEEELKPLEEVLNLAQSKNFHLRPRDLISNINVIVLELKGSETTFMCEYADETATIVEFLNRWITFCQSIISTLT
light: B1 light
notes: also called heavy chain-IL2
B3: Fc(GA(f0) SEED) (designed binder)
chain: EPKSSDKTHTCPPCPAPELLGGPSVFLFPPKPKDTLMISRTPEVTCVVVDVSHEDPEVKFNWYVDGVEVHNAKTKPREEQYNSTYRVVSVLTVLHQDWLNGKEYKCKVSNKALPAPIEKTISKAKGQPREPQVYTLPPPSEELALNELVTLTCLVKGFYPSDIAVEWLQGSQELPREKYLTWAPVLDSDGSFFLYSILRVAAEDWKKGDTFSCSVMHEALHNHYTQKSLDRSPGK
notes: also called "Full" GA SEED; Fc(GA SEED)
B4: Fc(GA(s0) SEED) (designed binder)
chain: EPKSSDKTHTCPPCPAPELLGGPSVFLFPPKPKDTLMISRTPEVTCVVVDVSHEDPEVKFNWYVDGVEVHNAKTKPREEQYNSTYRVVSVLTVLHQDWLNGKEYKCKVSNKALPAPIEKTISKAKGQPREPQVYTLPPPSEELALNNQVTLTCLVKGFYPSDIAVEWESNGQPEPREKYLTWAPVLDSDGSFFLYSILRVDASRWQQGNVFSCSVMHEALHNHYTQKSLSLSPGK
notes: It was put together from the cloning scheme: the Ngo MIV/Sma I fragment for the SEED replaces that of CH3 in the pdCs Fc vector; also called "Surface" GA SEED; GA SURF

Assays:
[1] = molecular target: the molecule itself; assay: co-expression in mammalian cells, non-reducing SDS-PAGE (homodimer)
[2] = molecular target: B2; assay: co-expression in mammalian cells, non-reducing SDS-PAGE (heterodimer)
[3] = molecular target: the molecule itself; assay: co-expression of both heavy chains and the light chain in mammalian cells, non-reducing SDS-PAGE
[4] = molecular target: the molecule itself; assay: co-expression with Fc(AG(f0) SEED)-IL2 in NS/0 cells, non-reducing SDS-PAGE (homodimer)
Fc(AG(f0) SEED)-IL2 = molecular target: T1, Fc(AG(f0) SEED)-IL2; assay: co-expression in NS/0 cells, SDS-PAGE (figure legend)
T1 construct: also called "Full" AG SEED-IL-2; Fc(AG SEED)-IL2

[5] = molecular target: the molecule itself; assay: co-expression with Fc(AG(s0) SEED)-IL2 in NS/0 cells, non-reducing SDS-PAGE (homodimer)
Fc(AG(s0) SEED)-IL2 = molecular target: T2, Fc(AG(s0) SEED)-IL2 (human); assay: co-expression in NS/0 cells, SDS-PAGE (figure legend)
T2 construct: It was put together from the cloning scheme (Ngo MIV/Sma I fragment exchange in the pdCs Fc-IL2 vector); also called "Surface" AG SEED-IL-2; AG SURF

Binder: B1
- binding result [1]: binds
- binding result [2]: binds

Binder: B2
- binding result [3]: no binding

Binder: B3
- binding result [4]: binds
- binding result (Fc(AG(f0) SEED)-IL2): binds

Binder: B4
- binding result [5]: binds
- binding result (Fc(AG(s0) SEED)-IL2): binds
